Legend:
[1] = target: beluga whale coronavirus (BwCoV) spike (S) glycoprotein ectodomain, 2P, GCN4 trimerization motif, Strep-tag (beluga whale coronavirus (BwCoV)); assay: cryo-EM structure
[2] = target: bottlenose dolphin coronavirus (BdCoV) spike (S) glycoprotein ectodomain (23-1370), 2P, GCN4 trimeri (bottlenose dolphin coronavirus (BdCoV)); assay: cryo-EM structure

## beluga whale coronavirus (BwCoV) spike (S) glycoprotein ectodomain, 2P, GCN4 trimerization motif, Strep-tag (domain or fragment)
[1]
  stoichiometry N: 3

## bottlenose dolphin coronavirus (BdCoV) spike (S) glycoprotein ectodomain (23-1370), 2P, GCN4 trimeri (domain or fragment)
[2]
  stoichiometry N: 3

— paper PMC13061240
